The text below walks through data of PMC9825591.

For experiment [1], the target named is EPYC1-GFP (Chlamydomonas reinhardtii). Kind of experiment: fluorescence correlation spectroscopy (FCS); dilute phase of a phase-separated mixture, alongside condensates: EPYC1-GFP fixed at 20 nM, unlabeled EPYC1 1 to 4 μM, Rubisco 0.05 to 2 μM; laser aimed at a region away from condensates.
The target is the same in experiment [2]. Kind of experiment: fluorescence correlation spectroscopy (FCS); 10 nM EPYC1-GFP with varying concentrations of unlabeled Rubisco in solution, one-phase region (no condensates); 20 mM Tris-HCl, 50 mM NaCl, pH 8.0; PEI-g-PEG coated coverslip; EPYC1-GFP diffusion coefficient against Rubisco concentration fitted with a quadratic binding equation; the authors consider the Kd an upper bound.

On to “Ribulose-1,5-bisphosphate carboxylase/oxygenase (Rubisco) holoenzyme, wildtype (from UniProt P00877 3-475; P00873 46-185) (complex)”, for which the Rubisco holoenzymes per EPYC1-Rubisco complex in experiment [1] and in experiment [2] was 1 throughout. This substance also yielded a Kd in experiment [2] of 29 nM.
